Measurements from article doi:10.1101/2021.02.17.431743 (bioRxiv, 2021).
Where “and” joins values, the source holds several entries; their conditions need not be identical. Equal entries are not always repeated.

Molecular target: the molecule itself
Test: gradient fixation ultracentrifugation

B1: HeV-RBP full ectodomain (head domain with intact stalk domain), dimeric fraction after gradient fixation (domain or fragment)
chain: QNYTRTTDNQALIKESLQSVQQQIKALTDKIGTEIGPKVSLIDTSSTITIPANIGLLGSKISQSTSSINENVNDKCKFTLPPLKIHECNISCPNPLPFREYRPISQGVSDLVGLPNQICLQKTTSTILKPRLISYTLPINTREGVCITDPLLAVDNGFFAYSHLEKIGSCTRGIAKQRIIGVGEVLDRGDKVPSMFMTNVWTPPNPSTIHHCSSTYHEDFYYTLCAVSHVGDPILNSTSWTESLSLIRLAVRPKSDSGDYNQKYIAITKVERGKYDKVMPYGPSGIKQGDTLYFPAVGFLPRTEFQYNDSNCPIIHCKYSKAENCRLSMGVNSKSHYILRSGLLKYNLSLGGDIILQFIEIADNRLTIGSPSKIYNSLGQPVFYQASYSWDTMIKLGDVDTVDPLRVQWRNNSVISRPGQSQCPRFNVCPEVCWEGTYNDAFLIDRLNWVSAGVYLNSNQTAENPVFAVFKDNEILYQVPLAEDDTNAQKTITDCFLLENVIWCISLVEIYDTGDSVIRPKLFAVKIPAQCSES
In the case of B1, the “stoichiometry N” value is reported as 2 and 4.
